Assay results from IntAct's records for PubMed 29039417.

B1: BBSome complex member BBS5 (Homo sapiens), Q8N3I7 (parent)
chain: MSVLDALWEDRDVRFDLSAQQMKTRPGEVLIDCLDSIEDTKGNNGDRGRLLVTNLRILWHSLALSRVNVSVGYNCILNITTRTANSKLRGQTEALYILTKCNSTRFEFIFTNLVPGSPRLFTSVMAVHRAYETSKMYRDFKLRSALIQNKQLRLLPQEHVYDKINGVWNLSSDQGNLGTFFITNVRIVWHANMNDSFNVSIPYLQIRSIKIRDSKFGLALVIESSQQSGGYVLGFKIDPVEKLQESVKEINSLHKVYSASPIFGVDYEMEEKPQPLEALTVEQIQDDVEIDSDGHTDAFVAYFADGNKQQDREPVFSEELGLAIEKLKDGFTLQGLWEVMS
partner: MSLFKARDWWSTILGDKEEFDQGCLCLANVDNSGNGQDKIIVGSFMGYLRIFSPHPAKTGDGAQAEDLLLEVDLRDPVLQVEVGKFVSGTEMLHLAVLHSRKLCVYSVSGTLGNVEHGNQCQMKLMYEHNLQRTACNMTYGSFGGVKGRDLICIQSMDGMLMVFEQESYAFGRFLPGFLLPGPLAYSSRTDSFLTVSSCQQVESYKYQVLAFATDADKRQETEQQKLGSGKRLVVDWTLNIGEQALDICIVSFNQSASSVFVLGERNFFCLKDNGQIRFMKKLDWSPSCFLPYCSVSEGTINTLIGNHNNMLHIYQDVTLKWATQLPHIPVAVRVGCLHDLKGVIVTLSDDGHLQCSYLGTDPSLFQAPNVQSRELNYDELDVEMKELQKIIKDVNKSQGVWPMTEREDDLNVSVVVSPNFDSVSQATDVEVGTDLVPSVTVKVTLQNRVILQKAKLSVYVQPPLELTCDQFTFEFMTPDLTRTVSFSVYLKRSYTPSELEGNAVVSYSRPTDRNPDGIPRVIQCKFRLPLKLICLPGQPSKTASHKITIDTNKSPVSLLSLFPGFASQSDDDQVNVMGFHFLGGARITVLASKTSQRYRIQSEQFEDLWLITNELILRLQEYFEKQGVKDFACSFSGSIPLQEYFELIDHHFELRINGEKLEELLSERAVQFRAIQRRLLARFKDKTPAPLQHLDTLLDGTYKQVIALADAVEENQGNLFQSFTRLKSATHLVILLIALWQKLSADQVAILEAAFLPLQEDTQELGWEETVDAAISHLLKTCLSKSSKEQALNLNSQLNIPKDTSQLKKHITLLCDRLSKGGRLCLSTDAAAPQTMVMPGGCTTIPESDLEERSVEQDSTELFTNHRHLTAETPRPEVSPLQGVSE

Variants of: B1
Details: with pthb1_human BBS9, Q3SYG4

Effect of a mutation on the interaction, with no effect:
MSVLDALWEDRDVRFDLSAQQMKTRPGEVLIDCLDSIEDTKGNNGDRGRLLVTNLRILWHSLALSRVNVSVGYNCILNITTRTANSKLRGQTEALYILTKCNSTRFEFIFTNLVPGSPRLFTSVMAVHRAYETSKMYRDFKLRSALIQNKQLRLLPQEHVYDKINGVWNLSSDQGNLGTFFITNVRIVWHANMNDSFNVSIPYLQIRSIKIRDSKFGLALVIESSQQSGGYVLGFKIDPVEKLQESVKEINSLHKVYSKSPIFGVDYEMEEKPQPLEALTVEQIQDDVEIDSDGHTDAFVAYFADGNKQQDREPVFSEELGLAIEKLKDGFTLQGLWEVMS [A259K]
MSVLDALWEDRDVRFDLSAQQMKTRPGEVLIDCLDSIEDTKGNNGDRGRLLVTNLRILWHSLALSRVNVSVGYNCILNITTRTANSKLRGQTEALYILTKCNSTRFEFIFTNLVPGSPRLFTSVMAVHRAYETSKMYRDFKLRSALIQNKQLRLLPQEHVYDKINGVWNLSSDQGNLGTFFITNVRIVWHANMNDSFNVSIPYLQIRSIKIRDSKFGLALVIESSQQSGGYVLGFKIDPVEKLQESVKEINSLHKVYSAAPIFGVDYEMEEKPQPLEALTVEQIQDDVEIDSDGHTDAFVAYFADGNKQQDREPVFSEELGLAIEKLKDGFTLQGLWEVMS [S260A]
MSVLDALWEDRDVRFDLSAQQMKTRPGEVLIDCLDSIEDTKGNNGDRGRLLVTNLRILWHSLALSRVNVSVGYNCILNITTRTANSKLRGQTEALYILTKCNSTRFEFIFTNLVPGSPRLFTSVMAVHRAYETSKMYRDFKLRSALIQNKQLRLLPQEHVYDKINGVWNLSSDQGNLGTFFITNVRIVWHANMNDSFNVSIPYLQIRSIKIRDSKFGLALVIESSQQSGGYVLGFKIDPVEKLQESVKEINSLHKVYSAEPIFGVDYEMEEKPQPLEALTVEQIQDDVEIDSDGHTDAFVAYFADGNKQQDREPVFSEELGLAIEKLKDGFTLQGLWEVMS [S260E]
MSVLDALWEDRDVRFDLSAQQMKTRPGEVLIDCLDSIEDTKGNNGDRGRLLVTNLRILWHSLALSRVNVSVGYNCILNITTRTANSKLRGQTEALYILTKCNSTRFEFIFTNLVPGSPRLFTSVMAVHRAYETSKMYRDFKLRSALIQNKQLRLLPQEHVYDKINGVWNLSSDQGNLGTFFITNVRIVWHANMNDSFNVSIPYLQIRSIKIRDSKFGLALVIESSQQSGGYVLGFKIDPVEKLQESVKEINSLHKVYSAKPIFGVDYEMEEKPQPLEALTVEQIQDDVEIDSDGHTDAFVAYFADGNKQQDREPVFSEELGLAIEKLKDGFTLQGLWEVMS [S260K]
MSVLDALWEDRDVRFDLSAQQMKTRPGEVLIDCLDSIEDTKGNNGDRGRLLVTNLRILWHSLALSRVNVSVGYNCILNITTRTANSKLRGQTEALYILTKCNSTRFEFIFTNLVPGSPRLFTSVMAVHRAYETSKMYRDFKLRSALIQNKQLRLLPQEHVYDKINGVWNLSSDQGNLGTFFITNVRIVWHANMNDSFNVSIPYLQIRSIKIRDSKFGLALVIESSQQSGGYVLGFKIDPVEKLQESVKEINSLHKVYSASAIFGVDYEMEEKPQPLEALTVEQIQDDVEIDSDGHTDAFVAYFADGNKQQDREPVFSEELGLAIEKLKDGFTLQGLWEVMS [P261A]
MSVLDALWEDRDVRFDLSAQQMKTRPGEVLIDCLDSIEDTKGNNGDRGRLLVTNLRILWHSLALSRVNVSVGYNCILNITTRTANSKLRGQTEALYILTKCNSTRFEFIFTNLVPGSPRLFTSVMAVHRAYETSKMYRDFKLRSALIQNKQLRLLPQEHVYDKINGVWNLSSDQGNLGTFFITNVRIVWHANMNDSFNVSIPYLQIRSIKIRDSKFGLALVIESSQQSGGYVLGFKIDPVEKLQESVKEINSLHKVYSASEIFGVDYEMEEKPQPLEALTVEQIQDDVEIDSDGHTDAFVAYFADGNKQQDREPVFSEELGLAIEKLKDGFTLQGLWEVMS [P261E]
MSVLDALWEDRDVRFDLSAQQMKTRPGEVLIDCLDSIEDTKGNNGDRGRLLVTNLRILWHSLALSRVNVSVGYNCILNITTRTANSKLRGQTEALYILTKCNSTRFEFIFTNLVPGSPRLFTSVMAVHRAYETSKMYRDFKLRSALIQNKQLRLLPQEHVYDKINGVWNLSSDQGNLGTFFITNVRIVWHANMNDSFNVSIPYLQIRSIKIRDSKFGLALVIESSQQSGGYVLGFKIDPVEKLQESVKEINSLHKVYSASKIFGVDYEMEEKPQPLEALTVEQIQDDVEIDSDGHTDAFVAYFADGNKQQDREPVFSEELGLAIEKLKDGFTLQGLWEVMS [P261K]
MSVLDALWEDRDVRFDLSAQQMKTRPGEVLIDCLDSIEDTKGNNGDRGRLLVTNLRILWHSLALSRVNVSVGYNCILNITTRTANSKLRGQTEALYILTKCNSTRFEFIFTNLVPGSPRLFTSVMAVHRAYETSKMYRDFKLRSALIQNKQLRLLPQEHVYDKINGVWNLSSDQGNLGTFFITNVRIVWHANMNDSFNVSIPYLQIRSIKIRDSKFGLALVIESSQQSGGYVLGFKIDPVEKLQESVKEINSLHKVYSASPAFGVDYEMEEKPQPLEALTVEQIQDDVEIDSDGHTDAFVAYFADGNKQQDREPVFSEELGLAIEKLKDGFTLQGLWEVMS [I262A]
MSVLDALWEDRDVRFDLSAQQMKTRPGEVLIDCLDSIEDTKGNNGDRGRLLVTNLRILWHSLALSRVNVSVGYNCILNITTRTANSKLRGQTEALYILTKCNSTRFEFIFTNLVPGSPRLFTSVMAVHRAYETSKMYRDFKLRSALIQNKQLRLLPQEHVYDKINGVWNLSSDQGNLGTFFITNVRIVWHANMNDSFNVSIPYLQIRSIKIRDSKFGLALVIESSQQSGGYVLGFKIDPVEKLQESVKEINSLHKVYSASPEFGVDYEMEEKPQPLEALTVEQIQDDVEIDSDGHTDAFVAYFADGNKQQDREPVFSEELGLAIEKLKDGFTLQGLWEVMS [I262E]
MSVLDALWEDRDVRFDLSAQQMKTRPGEVLIDCLDSIEDTKGNNGDRGRLLVTNLRILWHSLALSRVNVSVGYNCILNITTRTANSKLRGQTEALYILTKCNSTRFEFIFTNLVPGSPRLFTSVMAVHRAYETSKMYRDFKLRSALIQNKQLRLLPQEHVYDKINGVWNLSSDQGNLGTFFITNVRIVWHANMNDSFNVSIPYLQIRSIKIRDSKFGLALVIESSQQSGGYVLGFKIDPVEKLQESVKEINSLHKVYSASPKFGVDYEMEEKPQPLEALTVEQIQDDVEIDSDGHTDAFVAYFADGNKQQDREPVFSEELGLAIEKLKDGFTLQGLWEVMS [I262K]
MSVLDALWEDRDVRFDLSAQQMKTRPGEVLIDCLDSIEDTKGNNGDRGRLLVTNLRILWHSLALSRVNVSVGYNCILNITTRTANSKLRGQTEALYILTKCNSTRFEFIFTNLVPGSPRLFTSVMAVHRAYETSKMYRDFKLRSALIQNKQLRLLPQEHVYDKINGVWNLSSDQGNLGTFFITNVRIVWHANMNDSFNVSIPYLQIRSIKIRDSKFGLALVIESSQQSGGYVLGFKIDPVEKLQESVKEINSLHKVYSASPIAGVDYEMEEKPQPLEALTVEQIQDDVEIDSDGHTDAFVAYFADGNKQQDREPVFSEELGLAIEKLKDGFTLQGLWEVMS [F263A]
MSVLDALWEDRDVRFDLSAQQMKTRPGEVLIDCLDSIEDTKGNNGDRGRLLVTNLRILWHSLALSRVNVSVGYNCILNITTRTANSKLRGQTEALYILTKCNSTRFEFIFTNLVPGSPRLFTSVMAVHRAYETSKMYRDFKLRSALIQNKQLRLLPQEHVYDKINGVWNLSSDQGNLGTFFITNVRIVWHANMNDSFNVSIPYLQIRSIKIRDSKFGLALVIESSQQSGGYVLGFKIDPVEKLQESVKEINSLHKVYSASPIEGVDYEMEEKPQPLEALTVEQIQDDVEIDSDGHTDAFVAYFADGNKQQDREPVFSEELGLAIEKLKDGFTLQGLWEVMS [F263E]
MSVLDALWEDRDVRFDLSAQQMKTRPGEVLIDCLDSIEDTKGNNGDRGRLLVTNLRILWHSLALSRVNVSVGYNCILNITTRTANSKLRGQTEALYILTKCNSTRFEFIFTNLVPGSPRLFTSVMAVHRAYETSKMYRDFKLRSALIQNKQLRLLPQEHVYDKINGVWNLSSDQGNLGTFFITNVRIVWHANMNDSFNVSIPYLQIRSIKIRDSKFGLALVIESSQQSGGYVLGFKIDPVEKLQESVKEINSLHKVYSASPIKGVDYEMEEKPQPLEALTVEQIQDDVEIDSDGHTDAFVAYFADGNKQQDREPVFSEELGLAIEKLKDGFTLQGLWEVMS [F263K]
MSVLDALWEDRDVRFDLSAQQMKTRPGEVLIDCLDSIEDTKGNNGDRGRLLVTNLRILWHSLALSRVNVSVGYNCILNITTRTANSKLRGQTEALYILTKCNSTRFEFIFTNLVPGSPRLFTSVMAVHRAYETSKMYRDFKLRSALIQNKQLRLLPQEHVYDKINGVWNLSSDQGNLGTFFITNVRIVWHANMNDSFNVSIPYLQIRSIKIRDSKFGLALVIESSQQSGGYVLGFKIDPVEKLQESVKEINSLHKVYSASPIFAVDYEMEEKPQPLEALTVEQIQDDVEIDSDGHTDAFVAYFADGNKQQDREPVFSEELGLAIEKLKDGFTLQGLWEVMS [G264A]
MSVLDALWEDRDVRFDLSAQQMKTRPGEVLIDCLDSIEDTKGNNGDRGRLLVTNLRILWHSLALSRVNVSVGYNCILNITTRTANSKLRGQTEALYILTKCNSTRFEFIFTNLVPGSPRLFTSVMAVHRAYETSKMYRDFKLRSALIQNKQLRLLPQEHVYDKINGVWNLSSDQGNLGTFFITNVRIVWHANMNDSFNVSIPYLQIRSIKIRDSKFGLALVIESSQQSGGYVLGFKIDPVEKLQESVKEINSLHKVYSASPIFEVDYEMEEKPQPLEALTVEQIQDDVEIDSDGHTDAFVAYFADGNKQQDREPVFSEELGLAIEKLKDGFTLQGLWEVMS [G264E]
MSVLDALWEDRDVRFDLSAQQMKTRPGEVLIDCLDSIEDTKGNNGDRGRLLVTNLRILWHSLALSRVNVSVGYNCILNITTRTANSKLRGQTEALYILTKCNSTRFEFIFTNLVPGSPRLFTSVMAVHRAYETSKMYRDFKLRSALIQNKQLRLLPQEHVYDKINGVWNLSSDQGNLGTFFITNVRIVWHANMNDSFNVSIPYLQIRSIKIRDSKFGLALVIESSQQSGGYVLGFKIDPVEKLQESVKEINSLHKVYSASPIFKVDYEMEEKPQPLEALTVEQIQDDVEIDSDGHTDAFVAYFADGNKQQDREPVFSEELGLAIEKLKDGFTLQGLWEVMS [G264K]
MSVLDALWEDRDVRFDLSAQQMKTRPGEVLIDCLDSIEDTKGNNGDRGRLLVTNLRILWHSLALSRVNVSVGYNCILNITTRTANSKLRGQTEALYILTKCNSTRFEFIFTNLVPGSPRLFTSVMAVHRAYETSKMYRDFKLRSALIQNKQLRLLPQEHVYDKINGVWNLSSDQGNLGTFFITNVRIVWHANMNDSFNVSIPYLQIRSIKIRDSKFGLALVIESSQQSGGYVLGFKIDPVEKLQESVKEINSLHKVYSASPIFGADYEMEEKPQPLEALTVEQIQDDVEIDSDGHTDAFVAYFADGNKQQDREPVFSEELGLAIEKLKDGFTLQGLWEVMS [V265A]
